{
  "source": "the nanobody polyreactivity screen of Harvey et al. (2022)",
  "data": [
    {"test": "yeast display, Sf9 membrane polyspecificity reagent, FACS + sequencing; frameworks hold sequencing errors", "summary_of_the_method": "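Nanobodies came from a synthetic yeast display library in Saccharomyces cerevisiae BJ5465, induced with galactose for 36–48 hours and stained for 1 hour at 4 °C with 10% biotinylated, detergent-solubilized Sf9 membrane reagent. Cells were enriched on streptavidin microbeads and then FACS-sorted, with low and high (top ~1%) gates set on anti-HA fluorescence for expression and streptavidin fluorescence for reagent binding. Each polyreactivity label reflects the gate a clone came from. Genes were amplified by colony PCR, sequenced by MiSeq 2 × 250 and filtered by CDR length.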", "values": [
      {"sequence": "QVQLVESGGGLVQAGGSLRLSCATSGRIFGTNAMGWYRQAPGKERELVADITSGGSTNYADSVKGRFTISRDNAKNTVYVQMNSLKPEDTAVYYCAADVIGDLRWYRDEYWGQGTQVTVSS", "polyreactivity (PSR sort gate)": "low polyreactivity"},
      {"sequence": "QVQLVESGGGLVQAGGSLRLSCAYSGLTFTWYAMGWYRQAPGKERELVAGISSGTSTNYADSVKGRFSISRDTAKNTVYLQMNSMKAEATAVYYCNAKQLGKFDYWGQGTHVTVSS", "polyreactivity (PSR sort gate)": "low polyreactivity"},
      {"sequence": "QVQLVESGGGLVQAGGSLRLSCCATGSIFYSYVMGWYRQAPGKEREWFAAISRNGQSTYYADSVKGRFTISLDNAKNTVYLQMNSLKPDDTAVYYCAARSRDKYDYWGQGTQVTVSS", "polyreactivity (PSR sort gate)": "high polyreactivity"},
      {"sequence": "QVQLVESGGGLVQAGGSLRLSCDASGFIFYGYVMGWYRQAPGKERELVAAITIGGSTNYADSVKGRFTISRDNAKNTVYLQRNSLKPEDTAVYYCAADQRSVTVGMDSWGQGTQVTVSS", "polyreactivity (PSR sort gate)": "low polyreactivity"},
      {"sequence": "QVQLVESGGGLVQAGGSLRLSCDASGFTFYGYAMGWYRQAPGKERELVAAISGNGARTYYADSVKGRFTISRDNAKNTVYLQMNSLKPEDTAVYYCNADPATWWRNKEDYWGQGTQVTVSS", "polyreactivity (PSR sort gate)": "high polyreactivity"},
      {"sequence": "QVQLVESGGGLVQAGGSLRLSCDASGFTFYYYTMGWYRQAPGKERELVAAITWRGGSTNYADSVKGRFTISRDNAKNTVYVQMNSLKPEDTAVYYCAAVTYWFWPGMDYWGQGTQVTVSS", "polyreactivity (PSR sort gate)": "low polyreactivity"},
      {"sequence": "QVQLVESGGGLVQAGGSLRLSCDASGFTVVIYTMGWYRQAPGKERELVAAINWSGASTYYADSVKGRFTISRDNAKNTVYLQINSLKPEDTAVYYCNRVYVQQDFPYKIYPYNYWGQGTQVTVSS", "polyreactivity (PSR sort gate)": "high polyreactivity"},
      {"sequence": "QVQLVESGGGLVQAGGSLRLSCDASGGIFRFNSMGWYRQAPGKERELVAGISSTYYADSVKGRFTISRDNAKNTVYLQMNSLKPEDTAVYYCAAAGPEEHGYTYPGNNQMESWGQGTQVTVSS", "polyreactivity (PSR sort gate)": "low polyreactivity"},
      {"sequence": "QVQLVESGGGLVQAGGSLRLSCDASGGTFYRNAMGWYRQAHGKERELVAVISKRGTSTYYADSVKGRFTISRDNAKNTVYLQMNSLKPEDTAVYYCATVYYHLSPNRPYGYWGQGTQVTLSS", "polyreactivity (PSR sort gate)": "high polyreactivity"},
      {"sequence": "QVQLVESGGGLVQAGGSLRLSCDASGITFVRYTIRWYRQAPGKEREFVAGITRGGSTYYADSVKGRFTISPDNAKNNVFLQRNSLKPEDTAVYYCAARPRFLRASVEYDYWGQGTQVTVSS", "polyreactivity (PSR sort gate)": "high polyreactivity"},
      {"sequence": "QVQLVESGGGLVQAGGSLRLSCDASGLIFYSYAMGWYRQAPGKERELVAAISSRGGSTYYADSVKGRFTISRDNAKNTVYLQMNSLKQEDSAVYYCNAYFLLPHYDYWGQGTQVTVSS", "polyreactivity (PSR sort gate)": "low polyreactivity"},
      {"sequence": "QVQLVESGGGLVQAGGSLRLSCDASGRIFGRYAMGSYRPAPGNDRELVAAIPRNGGSTYADSVKGRFTISRDNAKNTVYLQMNSLKPEDTAVYYCAARNSYRYSKYDYWGQGTQVTVSS", "polyreactivity (PSR sort gate)": "high polyreactivity"},
      {"sequence": "QVQLVESGGGLVQAGGSLRLSCDASGRIFGYYAMGWYRQAPGKERELVAAISDGGSTDYADSVKGRFTISRDNAKNTVYLQMNSLKPEDTAVYYCNADRLYLYNVEYDYWGQGTQVTVSS", "polyreactivity (PSR sort gate)": "low polyreactivity"},
      {"sequence": "QVQLVESGGGLVQAGGSLRLSCDASGRIFRANAMGWYRQAPGKERELVASISRGGSTNYADSVKGRFTISRDNAKNTVYLQMNRLKPEDTAVYYCAARLGFYPYGYTSWYTVYYWGQGTQVTVSS", "polyreactivity (PSR sort gate)": "low polyreactivity"},
      {"sequence": "QVQLVESGGGLVQAGGSLRLSCDASGRIFRYNSMGWYRQAPGKEREFVAAITWRGGSTYYADSVKGRFTISRDNAKYNVYFQMNSLKPEDTAVYYCATRSPFGAAYEYGYWGQGTQVTVSS", "polyreactivity (PSR sort gate)": "high polyreactivity"},
      {"sequence": "QVQLVESGGGLVQAGGSLRLSCDASGRNFRRNAMGWYRQAPGKERELVAAITGGGSTNYADSVKGRFTISRDNAKNTVYLQMNSLKPEDTAVYYCAARRYGVRTYRFDSWGQGTQVTVSS", "polyreactivity (PSR sort gate)": "high polyreactivity"},
      {"sequence": "QVQLVESGGGLVQAGGSLRLSCDASGRTCFKYAMGWYRQAPGKERELVATITSSGGITYADSVKGRFTISRDNAKNTVYLQMNSLKPEDTAVYYCNARVWVTHYSELNYWGQGTQVTVSS", "polyreactivity (PSR sort gate)": "low polyreactivity"},
      {"sequence": "QVQLVESGGGLVQAGGSLRLSCDASGRTFGQNAMGWYRQAPGKERELVAGIDWSCGNTYYADSVKGRFTISRDNAKNTVYLQMNSLKPEDTAVYYCNTEGGRDTDWYDYWGQGTQVTVSS", "polyreactivity (PSR sort gate)": "low polyreactivity"},
      {"sequence": "QVQLVESGGGLVQAGGSLRLSCDASGRTFYRNDMGWYRQAPGKERELVAAISSGGSTTYADSVKGRFTISRDNAKNTVYLQMNSLKPEDTAVYYCAADFLDYWGVYGWAEYEYWGQGTQVTVSS", "polyreactivity (PSR sort gate)": "low polyreactivity"},
      {"sequence": "QVQLVESGGGLVQAGGSLRLSCDASGRTFYVYAMGWYRQAPGKERELVAAISSSGGSTYYADSVKGRFTISRDNAKNTVYLQMNSLKPEDTAVYYCAVVTPRYYGDTKYDYWGQGTQVTVSS", "polyreactivity (PSR sort gate)": "high polyreactivity"},
      {"sequence": "QVQLVESGGGLVQAGGSLRLSCDASGSIFAWYAMGWYRQAPGKERELVATITWSGGSTYYADSVKGRFTISRDNANNTVYLQMNSLKQEDTAVYYCAADRVWPYYQYDYWGQGTQVSVSS", "polyreactivity (PSR sort gate)": "low polyreactivity"},
      {"sequence": "QVQLVESGGGLVQAGGSLRLSCDASGSIFAYYAMRWYRPAPGKERELVAAISSRGGNTYYADSVKGRFTISRDYAKNTVYLQMNSLKPEDNAVYYCAAYSASYTFDYWGQGTQVTVSS", "polyreactivity (PSR sort gate)": "high polyreactivity"},
      {"sequence": "QVQLVESGGGLVQAGGSLRLSCDASGSIFDRYVMGWYRQAPGKERELVAAITTSGDGTYYADSVKGRFTISRDNAKNSVYLQMNSLKREDTAVYYCAAVRRSWKYSTSDYWGQGTQVTVSS", "polyreactivity (PSR sort gate)": "low polyreactivity"},
      {"sequence": "QVQLVESGGGLVQAGGSLRLSCDASGSIFPVYAMGWYRQAPGKERELVAAISSRGGRTYYADSVKGRFTISRDNAKNTVYLQMNSLKPEDNAVYYCATDYATYYRLPSQYDYWGQGTQVTVSS", "polyreactivity (PSR sort gate)": "low polyreactivity"},
      {"sequence": "QVQLVESGGGLVQAGGSLRLSCDASGSIFPYNAMGWYRQAPGKEREFVAAINLSGRSTNYADSVKGRFTISRDNAKNTVYLQMNSLKPEDTAVYYCNAPFVYFWPLNFDYWGQGTQVTVSS", "polyreactivity (PSR sort gate)": "low polyreactivity"},
      {"sequence": "QVQLVESGGGLVQAGGSLRLSCDASGSIFRGNAMGCYRQAPGKERELVPDITSGSNTYYADSVKGRFTISRDNAKNTVYLQMNSLKPEDTAVYYCAADGVAYPWWSVYNSFDYWGQGTQVTVSS", "polyreactivity (PSR sort gate)": "low polyreactivity"},
      {"sequence": "QVQLVESGGGLVQAGGSLRLSCDASGSIFRGNAMGWYRQAPGKERELVATITNGGSTNYADSVKGRFTISRDNAKNTVYLQMNSLKPEDTAVYYCNADHSYHIASTRHVDYWGQGTQVTVSS", "polyreactivity (PSR sort gate)": "low polyreactivity"},
      {"sequence": "QVQLVESGGGLVQAGGSLRLSCDASGSIFRSYAMGWYRQAPGKERELVASITRSSGSTYYADSVKGRFTISRDNAKNTVYLQMNSLKPEDTAVYYCAAYTGVRGYYYWGQGTQVTVSS", "polyreactivity (PSR sort gate)": "high polyreactivity"},
      {"sequence": "QVQLVESGGGLVQAGGSLRLSCDASGSIFRYYGMGWYRQAPGKEREMVAVISYRGGSTYYADSVKGRFTISRDNAKNTVYLQMNSLKPEDTAVYYCIADDPSKLGYEHDYWGQGTQVTVSS", "polyreactivity (PSR sort gate)": "low polyreactivity"},
      {"sequence": "QVQLVESGGGLVQAGGSLRLSCDASGSILVAYAIGWYRQAPGKEREFVAAISSVGNTYYADSVKGRFTISRDNAKNTVYLQMNSLKPEDTAVYYCNAVYRVWYAEWSTVGSPHDYWGQGTQVTVSS", "polyreactivity (PSR sort gate)": "low polyreactivity"},
      {"sequence": "QVQLVESGGGLVQAGGSLRLSCDASGSTFGIYAMGCYRQAPGKERELVAANSRSGDSTYYADSVKGRFTISRDNAKNTVDLQMNSLKPEDTAVYYCAADSYRLRYWAVTTHRVQYDYWGQGTQVTVSS", "polyreactivity (PSR sort gate)": "low polyreactivity"},
      {"sequence": "QVQLVESGGGLVQAGGSLRLSCDASGSTFGPYTMGWYRQAPGKERELVATISSGGSTYYADSVKGRFTISRDNAKNTVYLQMNSLKPEETAVYYCAARYWSIYDYWGPGTQVTVSS", "polyreactivity (PSR sort gate)": "low polyreactivity"},
      {"sequence": "QVQLVESGGGLVQAGGSLRLSCDASGSTFISYAMGWFRQAPGKERELVAAISSGGGRTSYADSVKGRFTISRDNEKNTVYLQMNSLKPEDTAVYYCNTKKLPYAEGYWGQGTQVTVSS", "polyreactivity (PSR sort gate)": "low polyreactivity"},
      {"sequence": "QVQLVESGGGLVQAGGSLRLSCDASGSTFRGNAMGWYRQAPGKEREFVASISRRGGRTNYADSVKGRFTISRDNAKNTVYLQMNSVKPEDTAVYYCAATTVPLGDYWGLGTQVTVSS", "polyreactivity (PSR sort gate)": "high polyreactivity"},
      {"sequence": "QVQLVESGGGLVQAGGSLRLSCDASGSTFSDYAMGWYRQAPGKERELVAAISDSGSGTYYADSVKGRFTISRDNAKNTVYLQMNSLKPEDTAVYYCNTDPRFAMDWGQGTQVTVSS", "polyreactivity (PSR sort gate)": "low polyreactivity"},
      {"sequence": "QVQLVESGGGLVQAGGSLRLSCDASGSTFTGYAMGWYRQAPGKERELVAAISRSGGSTSYADSVKGRFTISRDNAKNTVYLQMNSLKPEDTAGYYCAAQVQGTTRAKQRGGIGELDYWGQGTQVTVSS", "polyreactivity (PSR sort gate)": "low polyreactivity"},
      {"sequence": "QVQLVESGGGLVQAGGSLRLSCDASGSTFWYAMGWYIKAPGKEMDLVAAITARGGRTYYADSVKGRFTISRDNAKNTVYLQMNSLKPEDTAVYYCARLSYAGGQWIIGKYDYWGQGTQVTVSS", "polyreactivity (PSR sort gate)": "high polyreactivity"},
      {"sequence": "QVQLVESGGGLVQAGGSLRLSCDASGSTFYLYKGWYRQAPGKERELVAAITSGGRTYYADSVKGRFTISRDNAKNSVYLQMNSLKPVVSAVYYCARPYSRAYDYWGEGTQVTVSS", "polyreactivity (PSR sort gate)": "high polyreactivity"},
      {"sequence": "QVQLVESGGGLVQAGGSLRLSCDASGSTLVVNAMGWYRPAPGKERELVAAISDGGSTNYADSVKGRFTISRDNAMNTVYLQMNSLKPEDTADYYCAKDCETEVIDDYWGQGTQVTVSS", "polyreactivity (PSR sort gate)": "low polyreactivity"},
      {"sequence": "QVQLVESGGGLVQAGGSLRLSCDASVSIFVANAMGWSRQATGKERELVAAITGRGSRTYYADSVKGRFTISRDNAKNTVYLQMNSLKPEDTAVYYCADRYTNYGGYYWGQGTQVTVSS", "polyreactivity (PSR sort gate)": "high polyreactivity"},
      {"sequence": "QVQLVESGGGLVQAGGSLRLSCGASGAIFSRYAMGWSRPAPGKERQLVAAITSSGGSTYYADSVKGRFTISRDNAKNTVYLQMNSLKPEDTAVYYCATQYAGPWGEYDYWGQGTQVTVSS", "polyreactivity (PSR sort gate)": "low polyreactivity"},
      {"sequence": "QVQLVESGGGLVQAGGSLRLSCGASGFSFTRTAMGWYRQAPGKERELVAAISRGGSTNYADSVKGRFTISRDNAKITVYFQMNSLNPEDPSLYFCAKVRTRATPGVDYYYWGQGSQVTVSS", "polyreactivity (PSR sort gate)": "high polyreactivity"},
      {"sequence": "QVQLVESGGGLVQAGGSLRLSCGASGFTFDVYAMGWYRQAPGKERELVARIRWSGGSTSYADSVKGRFTISRDNAKNTVYVQMNSLKPEDTAVYYCNTRRIYVNSGRGDYWGQGTKVTVSS", "polyreactivity (PSR sort gate)": "low polyreactivity"}
    ]}
  ]
}
